In the experiment the target is T1, Biotinylated Tir-10_v2 (Biotin-Ahx-EHI-pY-DEVAAD).
T1 chain: EHIYDEVAAD
The experiment is described as follows: SPR; Biacore T100, 25 °C, Series S SA chip, about 15 RUs of biotinylated peptide captured; 10 mM HEPES pH 7.4, 150 mM NaCl, 3 mM EDTA, 0.05% P20, 0.1 mg/mL BSA; analytes 60 nM free SH2, 10 nM tcTRP24_(8)SS-SH2_(2), 10 nM tcTRP24_(8)SS; 50 μL/minute. On the technique in general: SPR reads the build-up and loss of mass on a sensor chip optically.

B1: free SH2 domain derived from the Nck adapter protein, P16333 282-376 (domain or fragment)
chain: WYYGKVTRHQAEMALNERGHEGDFLIRDSESSPNDFSVSLKAQGKNKHFKVQLKETVYCIGQRKFSTMEELVEHYKKAPIFTSEQGEKLYLVKHL
modifications: not checked
B1 yielded a maximum binding response of 125 RUs.

B2: tcTRP24_(8)SS-SH2_(2) (trimeric tcTRP24 particle with two Nck SH2 domains in each subunit, six in all), P16333 282-376; P16333 282-376 (protein)
chain: SELAARCLIILFQQLVELARLAIESGDEELLRRVSEWLEEVIKDMRRVVEQALREGNSELAARILIILFQQLVELARLAIESGDEELLRRVSEWLEEVIKDMRRVVEQALREGNWYYGKVTRHQAEMALNERGHEGDFLIRDSESSPNDFSVSLKAQGKNKHFKVQLKETVYCIGQRKFSTMEELVEHYKKAPIFTSEQGEKLYLVKHLSELAARILIILFQQLVELARLAIESGDEELLRRVSEWLEEVIKDMRRVVEQALREGNSELAARILIILFQQLVELARLAIESGDEELLRRVSEWLEEVIKDMRRVVEQALREGNSELAARILIILFQQLVELARLAIESGDEELLRRVSEWLEEVIKDMRRVVEQALREGNSELAARILIILFQQLVELARLAIESGDEELLRRVSEWLEEVIKDMRRVVEQALREGNWYYGKVTRHQAEMALNERGHEGDFLIRDSESSPNDFSVSLKAQGKNKHFKVQLKETVYCIGQRKFSTMEELVEHYKKAPIFTSEQGEKLYLVKHLSELAARILIILFQQLVELARLAIESGDEELLRRVSEWLEEVIKDMRRVVEQALREGNSELACRILIILFQQLVELARLAIESGDEELLRRVSEWLEEVIKDMRRVVEQALREGN
modifications: not checked
Take B2: the maximum binding response is 123 RUs.

The values above are taken from paper PMC8556268.
